What all share (assay): cell-based or functional assay
Assay [1] has as its target trimeric murine IL-2 receptor (IL-2Rα, IL-2Rβ, and IL-2Rγ) on CTLL-2 cells (murine) (UniProt P01590).
The target in assay [2] is human IL-2Rα on Treg cells (CD3+, CD4+, CD25hi, FoxP3+) of human PBMC (human) (UniProt P01589).
The target in assay [3] is trimeric murine IL-2 receptor (IL-2Rα, IL-2Rβ, and IL-2Rγ) on CTLL-2 cells (murine) (UniProt P01590). This is another data set of the same source.

Like-named read-outs stand apart in the source and are kept apart here.

Sequence of trimeric murine IL-2 receptor (IL-2Rα, IL-2Rβ, and IL-2Rγ) on CTLL-2 cells (murine) (P01590 22-268, chain 1 of 3): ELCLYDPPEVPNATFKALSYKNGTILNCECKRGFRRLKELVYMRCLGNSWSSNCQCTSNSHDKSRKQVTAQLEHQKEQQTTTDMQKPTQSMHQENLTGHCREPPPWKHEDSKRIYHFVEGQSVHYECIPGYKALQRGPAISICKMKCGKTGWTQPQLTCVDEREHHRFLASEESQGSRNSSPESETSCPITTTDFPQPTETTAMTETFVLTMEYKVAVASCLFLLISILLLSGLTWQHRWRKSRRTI
Sequence of trimeric murine IL-2 receptor (IL-2Rα, IL-2Rβ, and IL-2Rγ) on CTLL-2 cells (murine) (P16297 27-539, chain 2 of 3, further chain): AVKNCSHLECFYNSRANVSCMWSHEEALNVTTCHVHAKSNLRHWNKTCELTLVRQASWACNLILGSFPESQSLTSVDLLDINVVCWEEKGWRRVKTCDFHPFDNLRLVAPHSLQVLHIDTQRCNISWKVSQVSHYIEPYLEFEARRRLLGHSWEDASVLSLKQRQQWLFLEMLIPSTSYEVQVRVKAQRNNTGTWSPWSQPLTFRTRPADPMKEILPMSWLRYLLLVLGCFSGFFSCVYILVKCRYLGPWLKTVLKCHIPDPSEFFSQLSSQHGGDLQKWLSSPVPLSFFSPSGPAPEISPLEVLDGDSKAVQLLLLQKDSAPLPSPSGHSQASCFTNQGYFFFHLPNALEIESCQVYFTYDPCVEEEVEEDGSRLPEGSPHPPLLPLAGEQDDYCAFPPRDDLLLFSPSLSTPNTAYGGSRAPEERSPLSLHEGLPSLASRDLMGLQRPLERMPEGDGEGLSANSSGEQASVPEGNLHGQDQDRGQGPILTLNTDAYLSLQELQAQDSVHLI
Sequence of trimeric murine IL-2 receptor (IL-2Rα, IL-2Rβ, and IL-2Rγ) on CTLL-2 cells (murine) (P34902 23-369, chain 3 of 3, further chain): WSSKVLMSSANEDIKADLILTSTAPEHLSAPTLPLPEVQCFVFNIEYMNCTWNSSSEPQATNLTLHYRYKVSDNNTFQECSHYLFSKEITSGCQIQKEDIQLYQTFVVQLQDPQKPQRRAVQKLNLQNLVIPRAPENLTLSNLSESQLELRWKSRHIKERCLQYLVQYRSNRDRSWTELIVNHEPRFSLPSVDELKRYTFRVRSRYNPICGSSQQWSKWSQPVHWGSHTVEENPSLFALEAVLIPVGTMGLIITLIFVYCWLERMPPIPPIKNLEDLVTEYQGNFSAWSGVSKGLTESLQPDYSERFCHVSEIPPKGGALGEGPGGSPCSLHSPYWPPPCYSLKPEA
Sequence of human IL-2Rα on Treg cells (CD3+, CD4+, CD25hi, FoxP3+) of human PBMC (human) (P01589 22-272): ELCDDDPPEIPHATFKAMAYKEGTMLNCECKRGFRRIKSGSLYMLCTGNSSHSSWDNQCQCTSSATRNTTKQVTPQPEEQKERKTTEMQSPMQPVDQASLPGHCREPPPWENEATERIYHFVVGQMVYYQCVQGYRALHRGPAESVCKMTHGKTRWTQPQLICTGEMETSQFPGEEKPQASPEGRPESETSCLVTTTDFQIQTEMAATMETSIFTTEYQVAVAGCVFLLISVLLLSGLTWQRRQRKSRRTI

For “Proleukin (from UniProt P60568 22-153) (ligand)”, the STAT5 activation of CTLL-2 cells, EC50 in assay [1] turned out to be 6 pM; in assay [3], 2 pM. The same substance returned a Treg EC50, STAT5 activation (PBMC STAT5 assay) in assay [2] of under 1 pM.

For the origin of these results see patent publication US20240269235A1.
